The chains are these.
B1: BMP-7 (CHO cells, R&D Systems) (ligand, UniProt P18075 293-431, looked up)
chain: STGSKQRSQNRSKTPKNQEALRMANVAENSSSDQRQACKKHELYVSFRDLGWQDWIIAPEGYAAYYCEGECAFPLNSYMNATNHAIVQTLVHFINPETVPKPCCAPTQLNAISVLYFDDSSNVILKKYRNMVVRACGCH
modifications: biotin (biotinylated for the biosensor; site not stated)
notes: bone morphogenetic protein 7 (BMP-7), mature ligand; source: bought: R&D Systems (CHO cells)

Holding throughout (details): both partners purified
The target in assay [1] is T1, ActR-II receptor ectodomain (UniProt P27037 20-135).
T1 construct: activin receptor type II (ActR-II), extracellular domain; also called ActR-IIECD; source: expressed and purified as described earlier [28]
Description: SPR; BIACORE 2000; biotinylated ligand on a streptavidin-modified CM5 chip (about 200 RU); receptor ectodomain as analyte at 1, 2, 3, 5, 10, 20 and 50 uM; HBS500 (10 mM HEPES pH 7.4, 500 mM NaCl, 3.4 mM EDTA, 0.005% P20); apparent KD from the dose dependence of equilibrium binding.

Assay [2] deals with T2, wildtype BMP-2 (bone morphogenetic protein 2), E. coli derived (UniProt P12643 283-396).
T2 construct: dimeric ligand; also called wtBMP-2; BMP-2 dimer
Description: SEC; ternary complex of wildtype BMP-2 as isolated from gelfiltration (HBS700 buffer); its composition by analytical SDS-PAGE, band intensities compared with standard mixtures of defined molar ratios. On the technique in general: SEC sorts molecules by how far they enter the pores of the column.

Assay [3] concerns the target T3, binary complex BMP-2:BMPR-IAECD (purified) (UniProt P12643 283-396; P36894 24-152).
T3 construct: as the chain of Dm1; as the chain of Dm2; Complex formed beforehand and placed in the calorimeter cell at 7.5 uM; also called BMP-2:BMPR-IAECD complex; binary complex of BMP-2 and BMPR-IAECD; copies: 2 + 2
The assay is described as follows: ITC; VP-ITC, 298 K (25 C), HBS500 buffer (10 mM HEPES, 500 mM NaCl, pH 7.4); 150 uM ActR-IIBECD in the syringe, 7.5 uM binary complex BMP-2:BMPR-IAECD in the cell; one-site-binding model.

The target in assay [4] is T2, wildtype BMP-2 (bone morphogenetic …). Description: SEC; ternary complex of wildtype BMP-2 as isolated from gelfiltration (HBS700 buffer); its composition by reversed phase HPLC, peak areas divided by the extinction coefficients.
Assay [5] addresses T4, binary complex of BMP-2 bound to immobilized BMPR-IAECD (formed on the biosensor) (UniProt P12643 283-396; P36894 24-152).
T4 construct: as the chain of Dm4; as the chain of Dm2; also called BMP-2 in complex with immobilized BMPR-IAECD; binary BMP-2:BMPR-IAECD complex; source: formed on the biosensor by perfusion of immobilized BMPR-IAECD with 200nM BMP-2; copies: 2 +
Description: SPR; BMPR-IAECD immobilised; perfusion with 200 nM BMP-2 for 300 s to form the binary complex, then ActR-IIBECD as analyte at 1 to 50 uM for 120 s; apparent KD from the dose dependence of equilibrium binding, Scatchard analysis. Background: In SPR one partner is held on a chip, and binding of the other changes the refractive index at the surface.

In the next assay the target is T5, activin A (Sf9 cells) (UniProt P08476 311-426, biotin (biotinylated for the biosensor; site not stated)).
T5 construct: activin A (dimer of inhibin beta A chains), mature ligand; also called Act-A; source: Sf9 cells [59]
T5 sequence (looked up): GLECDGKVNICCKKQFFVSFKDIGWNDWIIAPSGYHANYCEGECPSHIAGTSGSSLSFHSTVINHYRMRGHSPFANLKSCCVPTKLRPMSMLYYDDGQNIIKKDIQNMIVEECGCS
Description: SPR; BIACORE 2000; biotinylated ligand on a streptavidin-modified CM5 chip (about 200 RU); receptor ectodomain as analyte at 1, 2, 3, 5, 10, 20 and 50 uM; HBS500 (10 mM HEPES pH 7.4, 500 mM NaCl, 3.4 mM EDTA, 0.005% P20); apparent KD from the dose dependence of equilibrium binding.

For assay [6], the target named is B1. The assay is described as above.
In assay [7] the target is T6, glycosylated BMP-2 expressed in CHO cells (UniProt P12643 283-396, glycosylated; biotin (biotinylated for the biosensor; site not stated)).
T6 construct: bone morphogenetic protein 2 (BMP-2), mature ligand; also called BMP-2 (CHO cells, R&D Systems); source: bought: R&D Systems (CHO cells)
The assay is described as above.

The target in assay [8] is B1. The description is as above. The source holds these as a separate data set.

With B1, the Kd in assay [1] was determined as 0.43 µM.

B2: ActR-IIB receptor ectodomain (ActR-IIBECD) (receptor, UniProt P27040 19-137, looked up)
chain: SGRGEAETRECIYYNANWELERTNQSGLERCEGEQDKRLHCYASWRNSSGTIELVKKGCWLDDFNCYDRQECVATEENPQVYFCCCEGNFCNERFTHLPEPGGPEVTYEPPPTAPTLLT
notes: mouse is recalled from the PDB entry 2H62 and should be checked there; also called activin type IIB receptor ectodomain; source: E. coli OrigamiB (DE3), purified (Ni2+-IMAC, thrombin cleavage, anion exchange, reversed phase HPLC)
On to B2, for which the stoichiometry N (as a rule, the number of molecules, sites or subunits per partner or assembly) in [2] is 2.1 ActR-IIBECD per BMP-2 dimer; in assay [3], 2; in assay [4], 1.97 ActR-IIBECD per 0.98 BMP-2 dimer. In addition, the Kd in assay [5] stood at 9 µM.

B3: ActR-IIBECD K37A (receptor, UniProt P27040 19-137, looked up)
chain: SGRGEAETRECIYYNANWELERTNQSGLERCEGEQDARLHCYASWRNSSGTIELVKKGCWLDDFNCYDRQECVATEENPQVYFCCCEGNFCNERFTHLPEPGGPEVTYEPPPTAPTLLT
notes: source: E. coli OrigamiB (DE3), purified (Ni2+-IMAC, thrombin cleavage, anion exchange, RP-HPLC)
As to B3, the “rel. KD (against wildtype ActR-IIBECD on the same ligand)” value (shortened to “rel. KD”) was 0.7 fold in the assay with activin A (Sf9 cells), 0.3 fold in assay [6] and 6.1 fold in assay [7].

B4: ActR-IIBECD K56A (receptor, UniProt P27040 19-137, looked up)
chain: SGRGEAETRECIYYNANWELERTNQSGLERCEGEQDKRLHCYASWRNSSGTIELVAKGCWLDDFNCYDRQECVATEENPQVYFCCCEGNFCNERFTHLPEPGGPEVTYEPPPTAPTLLT
notes: as for B3
For B4, the results for the “rel. KD” value (in the assay with activin A (Sf9 cells); in [6]; in assay [7]) were 2.7 fold, 14 fold and 11 fold, respectively.

B5: ActR-IIBECD L61P (receptor, UniProt P27040 19-137, looked up)
chain: SGRGEAETRECIYYNANWELERTNQSGLERCEGEQDKRLHCYASWRNSSGTIELVKKGCWPDDFNCYDRQECVATEENPQVYFCCCEGNFCNERFTHLPEPGGPEVTYEPPPTAPTLLT
notes: also called ActR-IIBL61P; source: E. coli OrigamiB (DE3), purified (Ni2+-IMAC, thrombin cleavage, anion exchange, RP-HPLC)
Consider B5, for which the “rel. KD” value with activin A (Sf9 cells) was found to be 2510 fold; in [6], 19 fold; in assay [7] it was 7.9 fold.

B6: ActR-IIBECD D63A (receptor, UniProt P27040 19-137, looked up)
chain: SGRGEAETRECIYYNANWELERTNQSGLERCEGEQDKRLHCYASWRNSSGTIELVKKGCWLDAFNCYDRQECVATEENPQVYFCCCEGNFCNERFTHLPEPGGPEVTYEPPPTAPTLLT
notes: as for B3
B6: the results for the “rel. KD” value (in the assay with activin A (Sf9 cells); in assay [6]; in assay [7]) were 8.6 fold, 6.7 fold and 9.6 fold, respectively.

B7: ActR-IIBECD L61A (receptor, UniProt P27040 19-137, looked up)
chain: SGRGEAETRECIYYNANWELERTNQSGLERCEGEQDKRLHCYASWRNSSGTIELVKKGCWADDFNCYDRQECVATEENPQVYFCCCEGNFCNERFTHLPEPGGPEVTYEPPPTAPTLLT
notes: also called ActR-IIBL61A; source: E. coli OrigamiB (DE3), purified (Ni2+-IMAC, thrombin cleavage, anion exchange, RP-HPLC)
B7: the entries for the “rel. KD” value (with activin A (Sf9 cells); in assay [6]; in assay [7]) were 24 fold, 6.4 fold and 6.4 fold, respectively.

B8: ActR-IIBECD Q80A (receptor, UniProt P27040 19-137, looked up)
chain: SGRGEAETRECIYYNANWELERTNQSGLERCEGEQDKRLHCYASWRNSSGTIELVKKGCWLDDFNCYDRQECVATEENPAVYFCCCEGNFCNERFTHLPEPGGPEVTYEPPPTAPTLLT
notes: as for B3
With B8, the “rel. KD” value with activin A (Sf9 cells) is 1.1 fold; in [6], 1 fold; in [7], 1.3 fold.

B9: ActR-IIBECD Y42A (receptor, UniProt P27040 19-137, looked up)
chain: SGRGEAETRECIYYNANWELERTNQSGLERCEGEQDKRLHCAASWRNSSGTIELVKKGCWLDDFNCYDRQECVATEENPQVYFCCCEGNFCNERFTHLPEPGGPEVTYEPPPTAPTLLT
notes: as for B3
B9: the figures for the “rel. KD” value (with activin A (Sf9 cells); in assay [6]; in [7]) were 290 fold, 49 fold and 61 fold, respectively.

B10: ActR-IIBECD R46A (receptor, UniProt P27040 19-137, looked up)
chain: SGRGEAETRECIYYNANWELERTNQSGLERCEGEQDKRLHCYASWANSSGTIELVKKGCWLDDFNCYDRQECVATEENPQVYFCCCEGNFCNERFTHLPEPGGPEVTYEPPPTAPTLLT
notes: as for B3
Take B10: the “rel. KD” value with activin A (Sf9 cells) is 2.9 fold; in assay [6] it was 3.3 fold; in assay [7], 8.4 fold.

B11: ActR-IIBECD E34A (receptor, UniProt P27040 19-137, looked up)
chain: SGRGEAETRECIYYNANWELERTNQSGLERCEGAQDKRLHCYASWRNSSGTIELVKKGCWLDDFNCYDRQECVATEENPQVYFCCCEGNFCNERFTHLPEPGGPEVTYEPPPTAPTLLT
notes: as for B3
B11: the “rel. KD” value with activin A (Sf9 cells) stood at 1 fold; in assay [6], 1.8 fold; in [7] it was 1 fold.

B12: BMPR-II receptor ectodomain (receptor, UniProt Q13873 27-150, looked up)
chain: SQNQERLCAFKDPYQQDLGIGESRISHENGTILCSKGSTCYGLWEKSKGDINLVKQGCWSHIGDPQECHYEECVVTTTPPSIQNGTYRFCCCSTDLCNVNFTENFPPPDTTPLSPPHSFNRDET
notes: BMP type II receptor (BMPR-II), extracellular domain; also called BMPR-IIECD; source: expressed and purified as described earlier [28]
As for B12, the Kd in assay [8] is 32 µM.
